Article PMC4341462, “Human RNASET2 derivatives as potential anti-angiogenic agents: actin binding sequence identification and characterization” (Oncoscience, 2014)

Experiments:
[1] = target: T1, Actin from rabbit muscle (Sigma A2522) (rabbit, UniProt P68135 1-377); test: ELISA; solid-phase actin binding assay: 500 ng actin coated per well (MaxiSorp, carbonate-bicarbonate pH 9.5), blocked with 3% BSA; trT2-50, trT2-50m or peptides added in 1:2 dilutions from 500 ng/well in 100 μl TBS, 1 h 37°C; detected with rabbit anti-trT2-50 and goat anti-rabbit IgG-HRP, OD 655 nm; affinity by double reciprocal plot; conditions: both partners purified
[2] = target: T1, Actin from rabbit muscle (Sigma A2522); test: SPR; BIAcore 3000; actin amine-coupled to a CM5 chip; hRNASET2, trT2-50, trT2-50m or peptides injected at 5 concentrations, 10 μl/min, 25°C, HBS (10 mM Hepes, 150 mM NaCl, 3 mM EDTA, 0.005% Polysorbate 20); global fit with BIAevaluation 3.2; conditions: both partners purified

- Kd [1]: 0.0345 µM
- Kd [2]: 0.5 µM
- koff [2]: 0.00969 s⁻¹
- kon [2]: 19400 M⁻¹ s⁻¹
B1: trT2-50m (truncated hRNASET2 identical to trT2-50 but missing E120-V141) (domain or fragment)
chain: EGCNRSWPFNLEEIKDLLPEMRAYWPDVIHSFPNRSRFWKHEWEKHGTCAAQVDALNSQKKYFGRSLELYRADFKDALARVYGVIPKIQCLPPSQDEEVQTIGQIELCLTKQDQQLQNCTEPGEQPSPKQEVWLANGAAESRGLRVCEDGPVFYPPPKKTKH
